Positions of bridges follow the written chain, without caps; N, C: chain ends. No end group written: not given here.
Legend:
[1] = target: T1, guanylate cyclase receptor (Homo sapiens, UniProt P25092); assay: T84 cell-based assay for determining the intracellular levels of cGMP; settings: for ability to enhance intracellular levels of cGMP (ranking in words): T84 cell-based assay, text summary of Table 4; for cGMP Level (intracellular cGMP level observed in T84 cells): 1 micromolar peptide agonist, 30 minutes
T1 construct: host or cells: T84 human colon carcinoma cells
T1 sequence (P25092 24-1073): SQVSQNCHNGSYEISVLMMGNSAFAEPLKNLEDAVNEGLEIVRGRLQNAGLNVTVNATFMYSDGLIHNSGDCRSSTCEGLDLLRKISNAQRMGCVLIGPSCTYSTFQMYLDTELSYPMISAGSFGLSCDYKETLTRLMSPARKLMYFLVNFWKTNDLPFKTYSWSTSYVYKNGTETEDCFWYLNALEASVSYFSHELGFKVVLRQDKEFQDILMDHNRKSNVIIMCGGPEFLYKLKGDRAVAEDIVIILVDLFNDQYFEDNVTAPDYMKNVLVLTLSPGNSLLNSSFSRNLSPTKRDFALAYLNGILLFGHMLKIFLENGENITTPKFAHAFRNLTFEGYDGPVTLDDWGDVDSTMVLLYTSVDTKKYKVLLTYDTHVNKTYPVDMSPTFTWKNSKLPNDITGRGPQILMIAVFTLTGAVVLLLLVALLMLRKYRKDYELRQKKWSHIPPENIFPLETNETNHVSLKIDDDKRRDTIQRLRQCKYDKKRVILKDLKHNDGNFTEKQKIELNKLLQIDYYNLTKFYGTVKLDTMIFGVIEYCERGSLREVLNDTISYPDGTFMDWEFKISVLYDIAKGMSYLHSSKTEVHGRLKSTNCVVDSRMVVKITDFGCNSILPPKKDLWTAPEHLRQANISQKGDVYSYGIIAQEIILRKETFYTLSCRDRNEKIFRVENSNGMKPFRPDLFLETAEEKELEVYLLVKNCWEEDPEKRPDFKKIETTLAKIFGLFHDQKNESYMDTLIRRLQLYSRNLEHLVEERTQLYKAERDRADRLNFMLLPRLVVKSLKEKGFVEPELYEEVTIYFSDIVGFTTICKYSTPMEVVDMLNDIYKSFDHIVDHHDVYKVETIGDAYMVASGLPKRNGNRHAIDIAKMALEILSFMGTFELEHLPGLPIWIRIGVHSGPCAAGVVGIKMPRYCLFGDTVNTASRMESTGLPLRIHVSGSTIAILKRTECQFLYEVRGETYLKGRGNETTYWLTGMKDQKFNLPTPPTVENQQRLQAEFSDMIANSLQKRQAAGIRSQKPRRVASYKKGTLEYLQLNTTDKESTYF
Procedure: Cell Culture: Human T84 colon carcinoma cells were obtained from the American Type Culture Collection at passage 52. Cells were grown in a 1:1 mixture of Ham's F-12 medium and Dulbecco's modified Eagle's medium (DMEM) supplemented with 10% fetal bovine serum, 100 U penicillin/ml, and 100 μg/ml streptomycin. The cells were fed fresh medium every third day and split at a confluence of approximately 80%.
(§1) T84 cell-based assay for determining the intracellular levels of cGMP: Peptide analogs were custom synthesized by Multiple Peptide Systems, San Diego, Calif., and by Princeton Biomolecules, Langhorne, Pa. Biological activity of the synthetic peptides was assayed as previously reported (15). Briefly, the confluent monolayers of T-84 cells in 24-well plates were washed twice with 250 μl of DMEM containing 50 mM HEPES (pH 7.4), pre-incubated at 37° C. for 10 min with 250 μl of DMEM containing 50 mM HEPES (pH 7.4) and 1 mM isobutylmethylxanthine (IBMX), followed by incubation with peptide analogs (0.1 nM to 10 μM) for 30 min. The medium was aspirated, and the reaction was terminated by the addition of 3% perchloric acid. Following centrifugation, and neutralization with 0.1 N NaOH, the supernatant was used directly for measurements of cGMP using an ELISA kit (Caymen Chemical, Ann Arbor, Mich.).

[2] = target: T1, guanylate cyclase receptor; assay: as above; settings: for intracellular production of cGMP at different pH values: pH 5 to 7
[3] = Heat stability: peptide solutions heated at 95° C., then tested for biological activity in the T84 cell-based assay; format: physicochemical; settings: 10 micromolar solution, read-out T84 cell-based assay
Procedure: as §1
To examine heat stability, 10 micromolar solutions of peptide analogs were heated at 95° C. for up to 90 minutes. At specific times during the treatment, samples were tested for their biological activity in the T84 cell-based assay. […] Based on energy calculations and 3D structure, we expected that the negatively charged carboxyl group of the side chain in position 3 of SEQ ID NO:1 specifically interacts with a positively charged binding site on the receptor. […] At the same time, to ensure efficiency of this particular interaction, an entire system of the long-range electrostatic interactions between ligand and receptor should be well balanced. Since the Glu^2 side chain presents more conformational possibilities compared to the Asp^2 side chain, this balance may be slightly changed in SP302 (double substitution of Asp's for Glu's) compared to SP304 (single substitution of Asp^3 for Glu^3). Indeed, biological activity of SP 304 is the best amongst the analogs evaluated.

## Asn^1 Asp^2 Glu^3 Cys^4 Glu^5 Leu^6 Cys^7 Val^8 Asn^9 Val^10 Ala^11 Cys^12 Thr^13 Gly^14 Cys^15 Leu^16 (NDECELCVNVACTGCL; disulfide 4-12, 7-15) [SP 304, [Glu^3]-UG, [4,12; 7,15] bicycle with two disulfide linkages]
[1]
  ability to enhance intracellular levels of cGMP (ranking in words): greatest enhancement of intracellular cGMP
[1]; T84 cells
  cGMP Level (intracellular cGMP level observed in T84 cells): 315 pmol/well
[1]; T84 cells, combination with cGMP dependent phosphodiesterase inhibitor sulindac sulfone
  intracellular cGMP level in combination with sulindac sulfone: synergistic increases
[1]; T84 cells, combination with cGMP dependent phosphodiesterase inhibitor zaprinast
  intracellular cGMP level in combination with Zaprinast: synergistic increases
[2]
  intracellular production of cGMP at different pH values: enhanced intracellular production of cGMP
[2]; pH between 6.5 and 7
  enhancement of intracellular cGMP, comparison among peptides: greatest enhancement
[3]
  biological activity after heating for 60 minutes: did not change significantly
  biological activity after heating for 90 minutes, relative to original value: remained unaltered

## SP 316: 14-residue peptide Glu Cys Glu Leu Cys Val Asn Val Ala Cys Thr Gly Cys Leu, positions 3-16, disulfides 4-12 and 7-15 (ECELCVNVACTGCL; disulfide 2-10, 5-13)
[1]
  ability to enhance intracellular levels of cGMP (ranking in words): second in effectiveness
[1]; T84 cells
  cGMP Level (intracellular cGMP level observed in T84 cells): 275 pmol/well

## [Glu^2, Glu^3]-UG (NEECELCVNVACTGCL; ends and bridges not checked; cysteine pairing not given here; UniProt Q16661 97-112, looked up, variant D2E D3E) [SP 302, uroguanylin analog, double substitution of Asp's for Glu's]
[1]
  ability to enhance intracellular levels of cGMP (ranking in words): somewhat weaker
[1]; T84 cells
  cGMP Level (intracellular cGMP level observed in T84 cells): 225 pmol/well
[2]
  intracellular production of cGMP at different pH values: enhanced intracellular production of cGMP
[3]
  biological activity after heating for 60 minutes: did not change significantly
  biological activity after heating for 90 minutes, relative to original value: about 80%

## [Glu^2]-UG (NEDCELCVNVACTGCL; ends and bridges not checked; cysteine pairing not given here; UniProt Q16661 97-112, looked up, variant D2E) [SP 303, uroguanylin analog with Glu in position 2]
[1]
  ability to enhance intracellular levels of cGMP (ranking in words): somewhat weaker
[1]; T84 cells
  cGMP Level (intracellular cGMP level observed in T84 cells): 195 pmol/well
[2]
  intracellular production of cGMP at different pH values: enhanced intracellular production of cGMP
[3]
  biological activity after heating for 60 minutes: did not change significantly
  biological activity after heating for 90 minutes, relative to original value: about 80%

## bicyclo[4,12; 7,15]Asn^1-Asp^2-Asp^3-Cys^4-Glu^5-Leu^6-Cys^7-Val^8-Asn^9-Val^10-Ala^11-Cys^12-Thr^13-Gly^14-Cys^15-Leu^16 (NDDCELCVNVACTGCL; disulfide 4-12, 7-15; listed as Homo sapiens) [SP 301, human uroguanylin, parent compound, reference compound]
[1]
  ability to enhance intracellular levels of cGMP (ranking in words): somewhat weaker
[1]; T84 cells
  cGMP Level (intracellular cGMP level observed in T84 cells): 205 pmol/well
[2]
  intracellular production of cGMP at different pH values: enhanced intracellular production of cGMP
[3]
  biological activity after heating for 60 minutes: did not change significantly
  biological activity after heating for 90 minutes, relative to original value: about 80%
